Measurements: paper PMC2670278 (Nature, 2009)

Target: factor H CCPs 6 & 7 (human, UniProt P08603, 402^His)
Assay: SPR

B1: factor H binding protein, construct comprising regions A, B and C but lacking the lipid anchor (natural protein)
chain: GGVAADIGAGLADALTAPLDHKDKGLQSLTLDQSVRKNEKLKLAAQGAEKTYGNGDSLNTGKLKNDKVSRFDFIRQIEVDGQLITLESGEFQVYKQSHSALTAFQTEQIQDSEHSGKMVAKRQFRIGDIAGEHTSFDKLPEGGRATYRGTAFGSDDAGGKLTYTIDFAAKQGNGKIEHLKSPELNVDLAAADIKPDGKRHAVISGSVLYNQAEKGSYSLGIFGGKAQEVAGSAEVKTVNGIRHIGLAAKQ
B1 was tested, and the Kd was ~5 nM.
